Several values for one entry are separate records, joined by “and”; a condition that tells them apart may be missing. Identical values can stand only once. One block for each binder: values may come before it.
How the values were obtained:
[1] = target: IGF1R on BxPC3 cells (human, UniProt P08069 31-1367); experiment: cell-based or functional assay
[2] = target: T1, IGF1R-ECD-His蛋白 (UniProt P08069 31-935); experiment: ELISA, IGF1R-ECD-His coated, HRP-anti-hFc
T1 construct: extracellular domain; Expressed in HEK-293E cells; also called IGF1R抗原
T1 sequence (P08069 31-935): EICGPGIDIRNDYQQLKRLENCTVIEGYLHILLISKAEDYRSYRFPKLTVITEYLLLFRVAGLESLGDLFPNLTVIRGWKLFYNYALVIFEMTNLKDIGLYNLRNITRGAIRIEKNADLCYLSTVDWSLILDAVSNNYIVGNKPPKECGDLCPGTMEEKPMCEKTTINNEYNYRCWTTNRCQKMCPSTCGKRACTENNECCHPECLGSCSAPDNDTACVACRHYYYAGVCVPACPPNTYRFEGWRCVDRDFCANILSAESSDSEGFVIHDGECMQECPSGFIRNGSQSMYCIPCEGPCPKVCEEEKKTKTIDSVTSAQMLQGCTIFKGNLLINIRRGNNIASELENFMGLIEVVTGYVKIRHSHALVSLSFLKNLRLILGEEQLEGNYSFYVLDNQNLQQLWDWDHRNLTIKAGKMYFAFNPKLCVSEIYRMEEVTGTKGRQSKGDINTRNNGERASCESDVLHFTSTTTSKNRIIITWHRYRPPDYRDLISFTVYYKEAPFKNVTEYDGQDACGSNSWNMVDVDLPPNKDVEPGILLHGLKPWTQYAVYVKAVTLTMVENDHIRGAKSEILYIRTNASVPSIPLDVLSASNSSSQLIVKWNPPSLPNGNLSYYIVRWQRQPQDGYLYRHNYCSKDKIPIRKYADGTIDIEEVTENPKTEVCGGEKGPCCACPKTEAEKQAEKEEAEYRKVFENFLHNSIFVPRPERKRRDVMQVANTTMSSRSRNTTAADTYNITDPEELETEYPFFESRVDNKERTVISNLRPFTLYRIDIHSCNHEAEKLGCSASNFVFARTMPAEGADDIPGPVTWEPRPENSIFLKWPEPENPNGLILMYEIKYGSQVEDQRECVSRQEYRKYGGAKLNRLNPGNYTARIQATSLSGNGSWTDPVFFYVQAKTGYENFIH

[3] = target: T2, PDL1-ECD-hFc蛋白 (UniProt Q9NZQ7 19-238); experiment: sandwich ELISA: PDL1-ECD-hFc coated, antibody, then IGF1R-ECD-His, HRP-anti-His
T2 construct: extracellular domain; PDL1-ECD-His with the C-terminal tag changed to hFc; also called PDL1抗原; not shown: hFc tag at the C-terminus in place of the His tag
T2 sequence (Q9NZQ7 19-238): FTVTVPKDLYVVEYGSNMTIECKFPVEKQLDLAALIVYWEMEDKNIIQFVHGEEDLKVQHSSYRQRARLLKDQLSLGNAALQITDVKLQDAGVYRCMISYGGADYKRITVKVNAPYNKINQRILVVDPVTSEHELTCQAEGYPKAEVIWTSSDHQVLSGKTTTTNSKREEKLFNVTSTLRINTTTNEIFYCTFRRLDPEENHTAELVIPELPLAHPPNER

[4] = target: PD-L1 on PD-L1 aAPC/CHO-K1 cells (UniProt Q9NZQ7 19-290); experiment: cell-based or functional assay
Sequence of PD-L1 on PD-L1 aAPC/CHO-K1 cells (Q9NZQ7 19-290): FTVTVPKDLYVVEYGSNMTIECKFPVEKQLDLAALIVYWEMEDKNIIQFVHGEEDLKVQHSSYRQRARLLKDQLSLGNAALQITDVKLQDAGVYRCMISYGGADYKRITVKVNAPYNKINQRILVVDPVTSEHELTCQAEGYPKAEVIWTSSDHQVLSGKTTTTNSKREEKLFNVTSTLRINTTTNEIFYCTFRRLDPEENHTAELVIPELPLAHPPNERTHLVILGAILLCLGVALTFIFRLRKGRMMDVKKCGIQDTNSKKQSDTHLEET

[5] = target: T3, PDL1-ECD-His蛋白 (UniProt Q9NZQ7 19-238); experiment: ELISA, PDL1-ECD-His coated, HRP goat anti-human Fc
T3 construct: extracellular domain; Expressed in HEK-293E cells; also called PD-L1抗原; PDL1抗原
T3 sequence (Q9NZQ7 other isoform, or with tags, fused parts or gaps): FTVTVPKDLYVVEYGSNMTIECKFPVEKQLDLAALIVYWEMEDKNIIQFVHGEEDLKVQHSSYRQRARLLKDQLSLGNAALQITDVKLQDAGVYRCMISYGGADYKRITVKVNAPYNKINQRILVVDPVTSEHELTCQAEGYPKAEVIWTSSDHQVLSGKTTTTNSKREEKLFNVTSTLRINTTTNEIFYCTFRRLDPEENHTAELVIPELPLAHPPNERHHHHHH

[6] = target: T1, IGF1R-ECD-His蛋白; experiment: sandwich ELISA: PDL1-ECD-hFc coated, antibody, then IGF1R-ECD-His, HRP-anti-His

Sequence of IGF1R on BxPC3 cells (P08069 31-1367): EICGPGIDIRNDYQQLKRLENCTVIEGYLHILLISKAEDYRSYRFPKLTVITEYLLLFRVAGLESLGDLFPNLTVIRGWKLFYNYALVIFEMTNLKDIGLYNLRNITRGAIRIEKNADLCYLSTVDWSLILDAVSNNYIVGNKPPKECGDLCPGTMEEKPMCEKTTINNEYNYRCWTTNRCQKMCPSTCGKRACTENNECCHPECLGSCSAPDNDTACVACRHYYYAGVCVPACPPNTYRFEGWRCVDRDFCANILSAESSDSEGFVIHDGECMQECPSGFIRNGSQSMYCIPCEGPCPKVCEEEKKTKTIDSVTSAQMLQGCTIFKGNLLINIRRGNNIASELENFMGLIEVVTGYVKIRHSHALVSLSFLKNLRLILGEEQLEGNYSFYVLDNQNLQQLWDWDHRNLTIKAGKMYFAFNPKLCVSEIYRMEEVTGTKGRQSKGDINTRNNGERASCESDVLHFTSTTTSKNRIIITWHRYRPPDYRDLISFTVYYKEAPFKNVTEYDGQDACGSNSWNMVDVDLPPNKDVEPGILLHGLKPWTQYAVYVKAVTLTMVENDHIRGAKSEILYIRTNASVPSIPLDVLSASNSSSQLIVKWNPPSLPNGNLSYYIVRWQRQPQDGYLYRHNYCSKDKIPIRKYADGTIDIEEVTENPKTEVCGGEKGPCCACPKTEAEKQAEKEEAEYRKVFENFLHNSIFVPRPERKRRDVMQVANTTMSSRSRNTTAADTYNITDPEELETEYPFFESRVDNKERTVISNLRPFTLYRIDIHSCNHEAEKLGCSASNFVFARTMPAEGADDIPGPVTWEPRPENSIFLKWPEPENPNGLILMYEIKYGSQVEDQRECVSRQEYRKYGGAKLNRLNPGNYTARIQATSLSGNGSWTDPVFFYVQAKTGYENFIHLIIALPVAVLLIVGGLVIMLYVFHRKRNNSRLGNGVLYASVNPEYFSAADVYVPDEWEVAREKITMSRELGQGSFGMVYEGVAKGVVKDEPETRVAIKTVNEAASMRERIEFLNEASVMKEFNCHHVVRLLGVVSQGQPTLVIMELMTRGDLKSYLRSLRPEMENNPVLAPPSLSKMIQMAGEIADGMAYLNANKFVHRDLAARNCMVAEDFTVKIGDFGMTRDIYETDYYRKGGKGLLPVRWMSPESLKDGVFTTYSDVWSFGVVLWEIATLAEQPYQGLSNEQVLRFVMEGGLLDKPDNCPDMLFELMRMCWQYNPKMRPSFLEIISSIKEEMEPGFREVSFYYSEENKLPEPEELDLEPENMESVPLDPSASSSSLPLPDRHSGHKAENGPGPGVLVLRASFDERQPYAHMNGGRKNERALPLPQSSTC

B1: 抗IGF1R单抗 A12 (antibody, human IgG1, lambda, V domains shown)
VH: EVQLVQSGAEVKKPGSSVKVSCKASGGTFSSYAISWVRQAPGQGLEWMGGIIPIFGTANYAQKFQGRVTITADKSTSTAYMELSSLRSEDTAVYYCARAPLRFLEWSTQDHYYYYYMDVWGKGTTVTVSS
VL: SSELTQDPAVSVALGQTVRITCQGDSLRSYYATWYQQKPGQAPILVIYGENKRPSGIPDRFSGSSSGNTASLTITGAQAEDEADYYCKSRDGSGQHLVFGGGTKLTVLG
notes: also called anti-IGF1RmAb; 抗IGF1R抗体A12
IC50, inhibition of BxPC3 proliferation with IGF-1 100 ng/mL (CCK8) [1]: 6.77 nM and 14 nM
EC50 [2]: 0.157 nM and 0.0676 nM
binding result [3]: no binding (tested: 起始浓度为30nM)

B2: 抗PD-L1单抗(anti-PDL1 mAb) (antibody, human IgG1, kappa, V domains shown)
VH: QVQLQQSGGGLVKPSQSLSLTCTVSGFSLTSYGVHWVRQPPGKGLEWIGLIWSGGGTDYNPSLKSRLTISRDTSKNQVSFKISSLTAADTAVYYCARQLGLRAMDYWGQGTSVTVSS
VL: EIVLTQSPDFLSVTPKEKVTITCRASQSIGTTIHWYQQKPDQSPKLLIKYASQSFSGVPSRFSGSGSGTDFTLTINSVEAEDAATYYCQQSNSWPLTFGAGTKLEIKR
notes: also called 抗人PD-L1单抗
EC50, PD-1/PD-L1 Blockade Bioassay (luciferase reporter) [4]: 0.363 nM and 0.901 nM
EC50 [5]: 0.0836 nM and 0.145 nM
binding result [6]: no binding (tested: 起始浓度为30nM)

B7: 抗PDL1×IGF1R双特异性抗体 D31-1 (bispecific antibody, human IgG1, lambda)
heavy: not shown
light: SSELTQDPAVSVALGQTVRITCQGDSLRSYYATWYQQKPGQAPILVIYGENKRPSGIPDRFSGSSSGNTASLTITGAQAEDEADYYCKSRDGSGQHLVFGGGTKLTVLGQPKAAPSVTLFPPSSEELQANKATLVCLISDFYPGAVTVAWKADSSPVKAGVETTTPSKQSNNKYAASSYLSLTPEQWKSHRSYSCQVTHEGSTVEKTVAPAECS
notes: A12 IgG1 with anti-PDL1 scFv1 (VL-L1-VH) at the C-terminus of each heavy chain
EC50, PD-1/PD-L1 Blockade Bioassay (luciferase reporter) [4]: 2.98 nM
IC50, inhibition of BxPC3 proliferation with IGF-1 100 ng/mL (CCK8) [1]: 1.96 nM
EC50 [2]: 0.193 nM
EC50 [5]: 0.391 nM

B8: 抗PDL1×IGF1R双特异性抗体 D31-3 (bispecific antibody, human IgG1, lambda)
heavy: not shown
light: B7 light
notes: A12 IgG1 with anti-PDL1 scFv2 at the N-terminus of each heavy chain
EC50, PD-1/PD-L1 Blockade Bioassay (luciferase reporter) [4]: 1.83 nM
IC50, inhibition of BxPC3 proliferation with IGF-1 100 ng/mL (CCK8) [1]: 47.7 nM
EC50 [2]: 0.315 nM
EC50 [5]: 0.301 nM

B9: 抗PDL1×IGF1R双特异性抗体 D31-2 (bispecific antibody, human IgG1, lambda)
heavy: not shown
light: B7 light
notes: A12 IgG1 with anti-PDL1 scFv2 (VH-L1-VL) at the C-terminus of each heavy chain
EC50, PD-1/PD-L1 Blockade Bioassay (luciferase reporter) [4]: 1.75 nM
IC50, inhibition of BxPC3 proliferation with IGF-1 100 ng/mL (CCK8) [1]: 2.51 nM
EC50 [2]: 0.185 nM
EC50 [5]: 0.296 nM

B10: 抗PDL1×IGF1R双特异性抗体 D31-4 (bispecific antibody, human IgG1, lambda)
heavy: not shown
light: B7 light
notes: A12 IgG1 with anti-PDL1 scFv1 at the N-terminus of each heavy chain
EC50, PD-1/PD-L1 Blockade Bioassay (luciferase reporter) [4]: 1.31 nM
IC50, inhibition of BxPC3 proliferation with IGF-1 100 ng/mL (CCK8) [1]: 16.5 nM
EC50 [2]: 0.249 nM
EC50 [5]: 0.249 nM

Further lines, results first:

EC50, PD-1/PD-L1 Blockade Bioassay (luciferase reporter) [4]: 0.401 nM
IC50, inhibition of BxPC3 proliferation with IGF-1 100 ng/mL (CCK8) [1]: 39.6 nM
EC50 [2]: 0.137 nM
EC50 [5]: 0.0858 nM
B3: 抗PDL1×IGF1R双特异性抗体 D31-5 (bispecific antibody, human IgG1, kappa)
heavy: not shown
light: EIVLTQSPDFLSVTPKEKVTITCRASQSIGTTIHWYQQKPDQSPKLLIKYASQSFSGVPSRFSGSGSGTDFTLTINSVEAEDAATYYCQQSNSWPLTFGAGTKLEIKRTVAAPSVFIFPPSDEQLKSGTASVVCLLNNFYPREAKVQWKVDNALQSGNSQESVTEQDSKDSTYSLSSTLTLSKADYEKHKVYACEVTHQGLSSPVTKSFNRGEC
notes: Anti-PDL1 IgG1 with A12 scFv1 (VL-L1-VH) at the C-terminus of each heavy chain

EC50, PD-1/PD-L1 Blockade Bioassay (luciferase reporter) [4]: 0.336 nM
IC50, inhibition of BxPC3 proliferation with IGF-1 100 ng/mL (CCK8) [1]: 67 nM
EC50 [2]: 0.0961 nM
EC50 [5]: 0.079 nM
B4: 抗PDL1×IGF1R双特异性抗体 D31-6 (bispecific antibody, human IgG1, kappa)
heavy: not shown
light: B3 light
notes: Anti-PDL1 IgG1 with A12 scFv2 (VH-L1-VL) at the C-terminus of each heavy chain

EC50, PD-1/PD-L1 Blockade Bioassay (luciferase reporter) [4]: 0.496 nM
IC50, inhibition of BxPC3 proliferation with IGF-1 100 ng/mL (CCK8) [1]: 20.5 nM
EC50 [2]: 0.0648 nM
EC50 [5]: 0.0749 nM
B5: 抗PDL1×IGF1R双特异性抗体 D31-7 (bispecific antibody, human IgG1, kappa)
heavy: not shown
light: B3 light
notes: Anti-PDL1 IgG1 with A12 scFv2 at the N-terminus of each heavy chain

EC50, PD-1/PD-L1 Blockade Bioassay (luciferase reporter) [4]: 0.391 nM
IC50, inhibition of BxPC3 proliferation with IGF-1 100 ng/mL (CCK8) [1]: 5.62 nM
EC50 [2]: 0.0465 nM
EC50 [5]: 0.0572 nM
B6: 抗PDL1×IGF1R双特异性抗体 D31-8 (bispecific antibody, human IgG1, kappa)
heavy: not shown
light: B3 light
notes: Anti-PDL1 IgG1 with A12 scFv1 at the N-terminus of each heavy chain

— patent CN116496403A (ZEDA BIOMEDICAL CO LTD, dated 2023)
